In the supplement of paper PMC11865577:

How the values were obtained:
Test in all cases: pull-down binding Z-score (relative to library population); higher = stronger binding
[1] = system: TO-3-N3-2 (biotin conjugate); conditions: RNA library: Library-2
Summary of the method: (§1)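 Biotin-conjugated small molecule (100 pmol) on streptavidin beads was incubated with 1 μg of heat-folded Cy5- or Cy3-end-labelled RNA library in phosphate/NaCl/KCl buffer at 25 °C for 60 min. Following three washes, RNA was eluted with hot SDS and hybridised at 55.5 °C for 20 h to a DNA barcode microarray. The binding value is a Z-score computed from the library mean and standard deviation, after subtraction of beads without compound and averaging of barcoded replicate probes with the highest and lowest excluded.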

[2] = system: TO-3-N3 (biotin conjugate); conditions: RNA library: Library-2
Summary of the method: as §1

[3] = system: G-clamp-N3 (biotin conjugate); conditions: RNA library: Library-1 (pre-miRNA loops + repeats)
Summary of the method: as §1

[4] = system: TO-N3-2 (biotin conjugate); conditions: RNA library: Library-2
Summary of the method: as §1

TO-N3 (biotin conjugate) = conditions: RNA library: Library-2
Summary of the method: as §1

| Sequence | pull-down binding Z-score [1] | pull-down binding Z-score [2] | pull-down binding Z-score [3] | pull-down binding Z-score [4] | pull-down binding Z-score (TO-N3 (biotin conjugate)) |
| --- | --- | --- | --- | --- | --- |
| UGUUCACUUUCUAUAUGAUGAAUA [hsa-mir-656] | -0.523 | -1.09 | -0.48 | -1.7 | -1.4 |
| UGAGUUUA [hsa-mir-451a] | -0.207 | -0.287 | -1.09 | -0.372 | -0.22 |
| UUCUGUUGUCUGAAAGAAAAGAA [hsa-mir-1283-2] | -0.145 | -0.517 | 0.164 | -0.382 | -0.429 |
| UUUGUACGGCACUGUGGCCACGUCCAAA [hsa-mir-497] | -0.306 | -0.121 | -0.884 | 0.0542 | -0.0106 |
| UUAACCUAAAAUGAGAAGGCUAA [hsa-mir-633] | -0.223 | -0.0885 | -1.29 | -0.637 | -0.212 |
| AUAGUUUUAGGGUCAUACCCCAUCUUGGAGAUAACUAU [hsa-let-7f-2] | 0.00457 | -0.384 | -1.63 | -0.745 | -0.497 |
| GUUUUUUAAGAGGAAGGGAGACCUAAGCUAGCA [hsa-mir-4481] | 0.475 | 0.205 | 0.269 | 0.747 | 0.507 |
| CCAAAUUUCAUGCG [hsa-mir-4454] | -0.18 | -0.0597 | -1.72 | -0.0452 | 0.0342 |
| CUUGAUUUAAAUGUCCAUACAAUUAAG [hsa-mir-124-1] | -0.142 | -0.0597 | -0.57 | -0.133 | -0.179 |
| CCUGGAGAGCUGCUGUCUCCAG [hsa-mir-6746] | -0.596 | -0.114 | 1.35 | 0.355 | 0.0297 |
| CCCGAGCUGGGCAGCAUGAAGGGCCUCGGG [hsa-mir-486-2] | 0.949 | 1.74 | 3.94 | 1.49 | 1.64 |
| CCUUAGCACUAGCAGGAGG [hsa-mir-612] | -0.482 | -0.588 | 0.101 | 0.00744 | -0.556 |
| AUUACUUGUGUUCUAUAUAAAGUAUU [hsa-mir-92a-2] | -0.0463 | -0.393 | -0.855 | -0.831 | -0.716 |
| CUUUGCUACUGCUC [hsa-mir-6072] | -0.0975 | -0.202 | -0.385 | 0.112 | -0.000442 |
| ACACCUGUAAAGAAUUGGUCAGCCUGGGGACUGGUGAUCUCUGCAGCUGU [hsa-mir-4265] | 0.475 | 1.15 | -0.15 | 1.42 | 1.39 |
| CAUUACUAAACUCAGUAAUG [hsa-mir-451b] | -0.862 | -0.822 | 0.93 | -1.68 | -1.23 |
| AUCCAGUCCACUUAAUUCUGAGAAAGUCCACAGACUGGAUCGGGUCUUGGAUUUUAGCUGGAUUCAU [hsa-mir-6082] | -0.223 | -0.796 | -0.0473 | 0.4 | -0.258 |
| UUGAAUCACACACACAUUUCAA [hsa-mir-4803] | -0.154 | -0.208 | -0.451 | -0.644 | -0.366 |
